# Starred links: 1 amine or outer side, 2 acyl side, 3 side chain; linkers in the order of their positions; H or OH if unused. Non-standard residues stand in square brackets, D forms with d. Groups on a side chain read outwards from the residue. No end group written: not given here. *: point of attachment. G2E3 = linker of 2 Gly and 3 Glu (read GGEEE); C15 diacid = O=C(O)CCCCCCCCCCCCCC(=O)*; γGlu = O=C(O)[C@H](CCC(=O)[*:2])N[*:1]; NMeY = CN[C@@H](Cc1ccc(O)cc1)C(=O)O; AEEA = NCCOCCOCC(=O)O; Aib = CC(C)(N)C(=O)O
# T1: full-length human GIPR with an N-terminal FLAG tag (human, UniProt P48546 22-466)
# T1 sequence (looked up): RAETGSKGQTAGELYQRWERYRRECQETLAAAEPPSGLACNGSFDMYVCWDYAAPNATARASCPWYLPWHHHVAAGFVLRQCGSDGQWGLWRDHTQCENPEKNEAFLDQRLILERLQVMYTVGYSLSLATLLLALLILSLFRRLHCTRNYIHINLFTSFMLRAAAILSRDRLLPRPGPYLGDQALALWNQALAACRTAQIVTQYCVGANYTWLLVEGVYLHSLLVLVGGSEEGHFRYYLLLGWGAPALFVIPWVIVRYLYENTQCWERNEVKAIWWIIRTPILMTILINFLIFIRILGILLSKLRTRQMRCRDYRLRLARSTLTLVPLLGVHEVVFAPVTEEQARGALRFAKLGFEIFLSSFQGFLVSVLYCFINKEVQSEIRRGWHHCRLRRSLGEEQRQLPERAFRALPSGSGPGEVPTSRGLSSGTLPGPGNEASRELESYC
# B1: Compound 30 (peptide)
# peptide: [NMeY][Aib]EGTFISDYSIAK([G2E3-C15 diacid])DR[Aib]AQ[Aib]NFVNWLLAQK-NH2
# B2: Compound 22 (peptide)
# peptide: Me-Y[Aib]EGTFISDYSIAK([2OEG-γGlu-γGlu-C15 diacid])DR[Aib]AQ[Aib]NFVNWLLAQK-NH2
# B3: Compound 26 (peptide)
# peptide: [NMeY][Aib]EGTFISDYSIAK([AEEA-AEEA-γGlu-γGlu-C15 diacid])DR[Aib]AQ[Aib]NFVNWLLAQK-OH
# modifications: N-terminus assumed
# SMILES: CC[C@H](C)[C@H](NC(=O)[C@H](CO)NC(=O)[C@H](Cc1ccc(O)cc1)NC(=O)[C@H](CC(=O)O)NC(=O)[C@H](CO)NC(=O)[C@@H](NC(=O)[C@H](Cc1ccccc1)NC(=O)[C@@H](NC(=O)CNC(=O)[C@H](CCC(=O)O)NC(=O)C(C)(C)NC(=O)[C@H](Cc1ccc(O)cc1)NC)[C@@H](C)O)[C@@H](C)CC)C(=O)N[C@@H](C)C(=O)N[C@@H](CCCCNC(=O)COCCOCCNC(=O)COCCOCCNC(=O)CC[C@H](NC(=O)CC[C@H](NC(=O)CCCCCCCCCCCCCC(=O)O)C(=O)O)C(=O)O)C(=O)N[C@@H](CC(=O)O)C(=O)N[C@@H](CCCNC(=N)N)C(=O)NC(C)(C)C(=O)N[C@@H](C)C(=O)N[C@@H](CCC(N)=O)C(=O)NC(C)(C)C(=O)N[C@@H](CC(N)=O)C(=O)N[C@@H](Cc1ccccc1)C(=O)N[C@H](C(=O)N[C@@H](CC(N)=O)C(=O)N[C@@H](Cc1c[nH]c2ccccc12)C(=O)N[C@@H](CC(C)C)C(=O)N[C@@H](CC(C)C)C(=O)N[C@@H](C)C(=O)N[C@@H](CCC(N)=O)C(=O)N[C@@H](CCCCN)C(=O)O)C(C)C
# B4: Compound 31 (peptide)
# peptide: [NMeY][Aib]EGTFISDYSIALDR[Aib]AQ[Aib]K([G2E3-C15 diacid])FVNWLLAQK-NH2
# B5: Compound 24 (peptide)
# peptide: Me-Y[Aib]EGTFISDYSIALDR[Aib]AQ[Aib]K([AEEA-γGlu-γGlu-γGlu-C15 diacid])FVNWLLAQK-NH2
# B6: Compound 153 (peptide)
# peptide: Me-Y[Aib]EGTFISDYSIAKDS[Aib]AQ[Aib]DFVNWLLAQRPSSGAPPPS-NH2
# modifications: not fully specified (residues 1, 14)
# B7: Compound 16 (peptide)
# peptide: Me-Y[Aib]EGTFISDYSIAK([AEEA-AEEA-γGlu-γGlu-C15 diacid])DR[Aib]AQ[Aib]NFVNWLLAQS
# modifications: not fully specified (residue 1)
# B8: Compound 155 (peptide)
# peptide: Me-Y[Aib]EGTFISDYSIAKDR[Aib]AQ[Aib]DFVNWLLAQSPSSGAPPPS-OH
# modifications: not fully specified (residues 1, 14)
# B9: Compound 37 (peptide)
# peptide: [NMeY][Aib]EGTFISDYSIALDRK([AEEA-AEEA-γGlu-C15 diacid])HQ[Aib]NFVNWLLAQS-OH
# modifications: also: Me-Tyr methyl position not given here
# B10: Compound 34 (peptide)
# peptide: [NMeY][Aib]EGTFISDYSIALDR[Aib]AQ[Aib]NFVNWLLAK([AEEA-AEEA-γGlu-C15 diacid])K-OH
# modifications: not fully specified
# B11: Compound 27 (peptide)
# peptide: [NMeY][Aib]EGTFISDYSIALDR[Aib]AQ[Aib]K([AEEA-AEEA-γGlu-γGlu-C15 diacid])FVNWLLAQK-OH
# modifications: N-terminus assumed
# SMILES: CC[C@H](C)[C@H](NC(=O)[C@H](CO)NC(=O)[C@H](Cc1ccc(O)cc1)NC(=O)[C@H](CC(=O)O)NC(=O)[C@H](CO)NC(=O)[C@@H](NC(=O)[C@H](Cc1ccccc1)NC(=O)[C@@H](NC(=O)CNC(=O)[C@H](CCC(=O)O)NC(=O)C(C)(C)NC(=O)[C@H](Cc1ccc(O)cc1)NC)[C@@H](C)O)[C@@H](C)CC)C(=O)N[C@@H](C)C(=O)N[C@@H](CC(C)C)C(=O)N[C@@H](CC(=O)O)C(=O)N[C@@H](CCCNC(=N)N)C(=O)NC(C)(C)C(=O)N[C@@H](C)C(=O)N[C@@H](CCC(N)=O)C(=O)NC(C)(C)C(=O)N[C@@H](CCCCNC(=O)COCCOCCNC(=O)COCCOCCNC(=O)CC[C@H](NC(=O)CC[C@H](NC(=O)CCCCCCCCCCCCCC(=O)O)C(=O)O)C(=O)O)C(=O)N[C@@H](Cc1ccccc1)C(=O)N[C@H](C(=O)N[C@@H](CC(N)=O)C(=O)N[C@@H](Cc1c[nH]c2ccccc12)C(=O)N[C@@H](CC(C)C)C(=O)N[C@@H](CC(C)C)C(=O)N[C@@H](C)C(=O)N[C@@H](CCC(N)=O)C(=O)N[C@@H](CCCCN)C(=O)O)C(C)C
# B12: Compound 18 (peptide)
# peptide: Me-Y[Aib]EGTFISDYSIAK([γGlu-γGlu-γGlu-C15 diacid])DR[Aib]AQ[Aib]NFVNWLLAQSPSSGAPPPS-NH2
# B13: Compound 36 (peptide)
# peptide: YXEGTFISDYSIALDKXHQXDFVNWLLAXK
# modifications: not fully specified; Me-Tyr1; Aib 2,17,20; Km29 = Lys(2OEGgE-C15DA); position 21 printed 'O' in Table 3; C-term OH
# B14: Compound 38 (peptide)
# peptide: [NMeY][Aib]EGTFISDYSIAK([AEEA-γGlu-γGlu-γGlu-C15 diacid])DR[Aib]AQ[Aib]NFVNWLL[Aib]QK-OH
# modifications: not fully specified
# B15: Compound 154 (peptide)
# peptide: Me-Y[Aib]EGTFISDYSIAKDS[Aib]AQ[Aib]NFVNWLLAQSPSSGAPPPS-NH2
# modifications: not fully specified (residues 1, 14)
# B16: Compound 156 (peptide)
# peptide: Me-Y[Aib]EGTFISDYSI[Aib]KDR[Aib]AQ[Aib]DFVNWLLAQSPSSGAPPPS-OH
# modifications: not fully specified (residues 1, 14)
# B17: Compound 15 (peptide)
# peptide: [NMeY][Aib]EGTFISDYSIALDR[Aib]AQ[Aib]K([AEEA-AEEA-γGlu-γGlu-C15 diacid])FVNWLLAQR
# modifications: not fully specified (N-terminus, C-terminus)
# B18: Compound 23 (peptide)
# peptide: Me-Y[Aib]EGTFISDYSIAK([AEEA-γGlu-γGlu-γGlu-C15 diacid])DR[Aib]AQ[Aib]NFVNWLLAQK-NH2
# B19: Compound 152 (peptide)
# peptide: Me-Y[Aib]EGTFISDYSIAKDR[Aib]AQ[Aib]DFVNWLLAQSPSSGAPPPG-OH
# modifications: not fully specified (residues 1, 14)
# B20: Compound 32 (peptide)
# peptide: [NMeY][Aib]EGTFISDYSIALDR[Aib]AQ[Aib]NFVNWLLAQK([G2E3-C15 diacid])PSSGAPPPS-OH
# B21: Compound 28 (peptide)
# peptide: [NMeY][Aib]EGTFISDYSIAK([AEEA-γGlu-γGlu-γGlu-C15 diacid])DR[Aib]AQ[Aib]NFVNWLL[Aib]QK-NH2
# modifications: N-terminus assumed
# SMILES: CC[C@H](C)[C@H](NC(=O)[C@H](CO)NC(=O)[C@H](Cc1ccc(O)cc1)NC(=O)[C@H](CC(=O)O)NC(=O)[C@H](CO)NC(=O)[C@@H](NC(=O)[C@H](Cc1ccccc1)NC(=O)[C@@H](NC(=O)CNC(=O)[C@H](CCC(=O)O)NC(=O)C(C)(C)NC(=O)[C@H](Cc1ccc(O)cc1)NC)[C@@H](C)O)[C@@H](C)CC)C(=O)N[C@@H](C)C(=O)N[C@@H](CCCCNC(=O)COCCOCCNC(=O)CC[C@H](NC(=O)CC[C@H](NC(=O)CC[C@H](NC(=O)CCCCCCCCCCCCCC(=O)O)C(=O)O)C(=O)O)C(=O)O)C(=O)N[C@@H](CC(=O)O)C(=O)N[C@@H](CCCNC(=N)N)C(=O)NC(C)(C)C(=O)N[C@@H](C)C(=O)N[C@@H](CCC(N)=O)C(=O)NC(C)(C)C(=O)N[C@@H](CC(N)=O)C(=O)N[C@@H](Cc1ccccc1)C(=O)N[C@H](C(=O)N[C@@H](CC(N)=O)C(=O)N[C@@H](Cc1c[nH]c2ccccc12)C(=O)N[C@@H](CC(C)C)C(=O)N[C@@H](CC(C)C)C(=O)NC(C)(C)C(=O)N[C@@H](CCC(N)=O)C(=O)N[C@@H](CCCCN)C(N)=O)C(C)C
# Tests used:
# [1] = molecular target: full-length human GLP-1R with an N-terminal FLAG tag (human, UniProt P43220 24-463); test: cell-based or functional assay
# [2] = molecular target: T1, full-length human GIPR with an …; test: cell-based or functional assay
Binder,Human GLP1R cAMP HEK293T EC50 [1],"Human GIPR cAMP, HEK293T EC50 [2]"
B1,442 nM,0.0001 nM
B2,631 nM,0.0003 nM
B3,1000 nM,0.0003 nM
B4,0.776 nM,0.0002 nM
B5,16.9 nM,0.0004 nM
B6,389 nM,0.0002 nM
B7,263 nM,0.0003 nM
B8,295 nM,0.0003 nM
B9,43.7 nM,0.0002 nM
B10,117 nM,0.0003 nM
B11,145 nM,0.0006 nM
B12,1000 nM,0.0002 nM
B13,25.1 nM,0.001 nM
B14,525 nM,0.0002 nM
B15,288 nM,0.0003 nM
B16,89.1 nM,0.0002 nM
B17,155 nM,0.0003 nM
B18,363 nM,0.0004 nM
B19,302 nM,0.0003 nM
B20,4.73 nM,0.0002 nM
B21,60.3 nM,0.0001 nM

# Reference: US20220227830A1, “QD DOSING OF GIP RECEPTOR AGONIST PEPTIDE COMPOUNDS AND USES THEREOF” (Takeda Pharmaceutical Company Limited, priority 2020, published 2022)
